Experimental data published in US20180030149A1.

Target: recombinant human ErbB3 monomeric protein (cleaved rhErbB3) (human) (UniProt P21860)
Assay: SPR Biacore 37 C; antibody captured on anti-human Fc, cleaved rhErbB3 (monomer) injected

Q: How did the Kd turn out when U1-59 (antibody) was run?
A: 0.53 nM
